Test results taken from US20230272056A1 (Merck Sharp & Dohme, published 2023).

Columns and labels:
[1] = target: T1, human LAP-TGFB1 Fc fusion (human); experiment: SPR pH 7.4, antigen captured on Fab 54BLH
T1 construct: also called human LAP-TGFβ1-Fc; human LAP-TGFβ-Fc isoform 1
Source text: (§1) A Series S C1 sensor chip (Cytiva, catalog BR100535) was immobilized with low densities of high affinity Fab 54BLH on a Biacore T200 instrument with 1×HBS-EP+(Teknova, catalog H8022). This surface served as a monovalent capture surface for a low-density layer of heterodimer human LAP-TGFβ1 complex leaving the second binding site exposed for monovalent kinetic binding analysis with both mAbs and Fabs. Immobilized flow cell 1 served as the reference and flow cells 2, 3 and 4 were used to evaluate the binding interaction between human LAP-TGFβ1 and yeast display mutant mAbs and Fabs.
(§2) Approximately 15-25 RU of human LAP-TGFβ1-Fc was captured to the Fab capture surface followed by injection of 1:3 serially diluted Fabs and mAbs from 6 nM to 0.07 nM (Fabs: 54BLH, 55BLH, 60BLH, 63BLH, 64BLH-mAbs: 69BLH, 70BLH) and 1:3 serially diluted Fab and mAbs from 60 nM to 0.74 nM (Fabs: 59BLH, 66BLH, 67BLH—mAbs: 74BLH, 75BLH, 78BLH, 79BLH, 81BLH, 82BLH) including 0 nM. The binding data was double referenced by subtraction of signal from a reference flow cell and the 0 nM injections for evaluation of Fabs and mAbs respectively. Binding rate constants were calculated/determined by fitting the data with a 1:1 binding model (Cytiva Biacore T200 Evaluation software 3.0).

[2] = target: T2, human LAP-TGFB2 Fc fusion (human); experiment: SPR pH 7.4
T2 construct: also called human LAP-TGFβ2; LAP-TGFβ isoform 2

[3] = target: T3, human LAP-TGFB3 Fc fusion (human); experiment: SPR pH 7.4
T3 construct: also called human LAP-TGFβ3; LAP-TGFβ isoform 3

[4] = target: T1, human LAP-TGFB1 Fc fusion; experiment: SPR pH 7.4, antigen-Fc captured, Fab analyte
[5] = target: T1, human LAP-TGFB1 Fc fusion; experiment: SPR
[6] = target: T1, human LAP-TGFB1 Fc fusion; experiment: SPR pH 7.4, antigen-Fc captured, Fab analyte; remark: listed apart in the source
[7] = target: T1, human LAP-TGFB1 Fc fusion; experiment: SPR pH 6.0, antigen-Fc captured, Fab analyte
Protocol: A Series S CM4 sensor chip (Cytiva, catalog BR100534) was immobilized with an anti-human Fc capture antibody following the kit protocol (Cytiva, catalog BR100839) on a Biacore T200 instrument with 1× HBS-EP+ (Teknova, catalog H8022). […] The binding data were double referenced by subtraction of signal from a reference (capture surface only) flow cell and the 0 nM Fab injection. Binding rate constants were determined by fitting the data with a 1:1 binding model (Cytiva Biacore T200 Evaluation software 3.0).

[8] = target: T1, human LAP-TGFB1 Fc fusion; experiment: SPR pH 6.0, antigen captured on Fab 54BLH
Source text: as §1, §2

T2 sequence (chain, as listed by the source limits assumed): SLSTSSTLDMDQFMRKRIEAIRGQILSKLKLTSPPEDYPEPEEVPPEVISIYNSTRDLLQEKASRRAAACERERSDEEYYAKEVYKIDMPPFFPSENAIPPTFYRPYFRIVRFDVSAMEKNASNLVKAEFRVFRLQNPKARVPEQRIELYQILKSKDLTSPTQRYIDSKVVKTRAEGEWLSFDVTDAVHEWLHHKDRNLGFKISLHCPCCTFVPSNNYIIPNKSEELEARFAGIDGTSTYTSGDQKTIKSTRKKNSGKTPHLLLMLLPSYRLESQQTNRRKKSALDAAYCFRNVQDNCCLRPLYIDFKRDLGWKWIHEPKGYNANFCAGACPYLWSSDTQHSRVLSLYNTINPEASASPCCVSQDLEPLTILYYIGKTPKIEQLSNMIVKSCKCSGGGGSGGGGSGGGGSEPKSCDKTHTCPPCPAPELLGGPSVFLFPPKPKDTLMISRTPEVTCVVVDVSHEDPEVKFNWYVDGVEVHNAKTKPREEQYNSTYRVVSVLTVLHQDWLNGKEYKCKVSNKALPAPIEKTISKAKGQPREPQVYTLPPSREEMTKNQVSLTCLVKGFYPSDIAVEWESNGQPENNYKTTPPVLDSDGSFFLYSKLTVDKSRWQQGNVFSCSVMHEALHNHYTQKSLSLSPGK
T1 sequence (chain, as listed by the source limits assumed): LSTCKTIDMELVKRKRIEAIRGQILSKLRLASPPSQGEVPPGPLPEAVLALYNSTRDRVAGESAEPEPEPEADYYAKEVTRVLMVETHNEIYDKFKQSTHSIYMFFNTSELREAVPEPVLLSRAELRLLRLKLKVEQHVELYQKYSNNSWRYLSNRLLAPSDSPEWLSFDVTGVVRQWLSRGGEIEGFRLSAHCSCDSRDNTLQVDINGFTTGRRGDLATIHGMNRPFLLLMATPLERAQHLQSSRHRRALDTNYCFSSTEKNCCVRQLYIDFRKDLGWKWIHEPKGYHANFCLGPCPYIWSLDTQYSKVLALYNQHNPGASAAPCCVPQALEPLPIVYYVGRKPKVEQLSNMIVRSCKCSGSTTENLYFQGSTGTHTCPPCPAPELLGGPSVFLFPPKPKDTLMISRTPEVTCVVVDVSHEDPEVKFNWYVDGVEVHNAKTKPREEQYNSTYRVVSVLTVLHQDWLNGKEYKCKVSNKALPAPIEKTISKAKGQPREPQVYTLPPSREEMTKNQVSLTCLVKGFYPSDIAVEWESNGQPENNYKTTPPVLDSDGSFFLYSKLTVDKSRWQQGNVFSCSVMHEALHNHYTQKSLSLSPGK
T3 sequence (chain, as listed by the source limits assumed): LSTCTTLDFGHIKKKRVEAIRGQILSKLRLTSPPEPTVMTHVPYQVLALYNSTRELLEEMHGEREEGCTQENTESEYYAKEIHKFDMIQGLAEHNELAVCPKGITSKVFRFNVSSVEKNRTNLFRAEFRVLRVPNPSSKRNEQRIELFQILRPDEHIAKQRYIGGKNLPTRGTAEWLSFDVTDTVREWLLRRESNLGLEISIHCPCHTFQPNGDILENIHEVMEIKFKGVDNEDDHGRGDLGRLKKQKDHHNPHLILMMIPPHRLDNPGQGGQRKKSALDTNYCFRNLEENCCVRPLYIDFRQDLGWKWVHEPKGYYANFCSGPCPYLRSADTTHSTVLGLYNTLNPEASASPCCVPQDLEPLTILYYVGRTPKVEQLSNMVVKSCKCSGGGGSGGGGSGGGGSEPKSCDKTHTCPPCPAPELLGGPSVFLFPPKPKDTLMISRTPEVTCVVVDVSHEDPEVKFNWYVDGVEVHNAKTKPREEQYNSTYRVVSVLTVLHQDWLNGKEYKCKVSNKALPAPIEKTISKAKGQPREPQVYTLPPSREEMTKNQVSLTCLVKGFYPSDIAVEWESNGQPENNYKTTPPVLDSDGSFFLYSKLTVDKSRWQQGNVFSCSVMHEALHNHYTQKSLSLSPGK

Row | Binder | Kd [1] [nM] | koff [1] [s⁻¹] | kon [1] [M⁻¹ s⁻¹] | binding result [2] | binding result [3] | Kd [4] [nM] | koff [4] [s⁻¹] | kon [4] [M⁻¹ s⁻¹] | Fold change in KD from pH 7.4 to pH 6 [5] [fold] | Fold improvement in KD [6] [fold] | Kd [6] [nM] | koff [6] [s⁻¹] | kon [6] [M⁻¹ s⁻¹] | Kd [7] [nM] | koff [7] [s⁻¹] | kon [7] [M⁻¹ s⁻¹] | Kd [8] [nM] | koff [8] [s⁻¹] | kon [8] [M⁻¹ s⁻¹]
1 | 64BLH (Fab, V domains shown, also called 16BLM Fab) VH: EVQLVQSGAEVKKPGASVKVSCKASGYTFTSYDMHWVRQAPGQGLEWMGRIDPQSGGIKYAQKFQGRATLTVDTSTSTAYMELSRLRSDDTAVYYCARWDYGGYFDVWGQGTLVTVSS VL: DIQMTQSPSSLSASVGDRVTITCRASQDIYNYLNWYQQKPGKAVKLLIYYTSVLETGVPSRFSGSGSGTDYTLTISSLQPEDFATYFCQQGDTLPWTFGQGTKLEIK | 0.062 | 0.000939 | 1.53e+07 | no binding (tested: 1000 nM Fab) | no binding (tested: 1000 nM Fab) | 0.077 | 0.0005 | 6.51e+06 | 0.3 | 760 | 0.077 | 0.0005 | 6.51e+06 | 0.024 | 0.000843 | 3.49e+07 | 0.182 | 0.00194 | 1.07e+07
2 | 68BLH (Fab, V domains shown, also called 20BLM Fab) VH: EVQLVQSGAEVKKPGASVKVSCKASGYTFTSYDMHWVRQAPGQGLEWMGRIDPQSGGEKYAQKFQGRATLTVDTSTSTAYMELSRLRSDDTAVYYCARYDYGGYFDVWGQGTLVTVSS VL: DIQMTQSPSSLSASVGDRVTITCRASQDIYNYLNWYQQKPGKAVKLLIYYTSRLETGVPSRFSGSGSGTDYTLTISSLQPEDFATYFCQQGDTLPWTFGQGTKLEIK | – | – | – | no binding (tested: 1000 nM Fab) | no binding (tested: 1000 nM Fab) | 0.438 | 0.00331 | 7.57e+06 | 1.2 | 134 | 0.438 | 0.00331 | 7.57e+06 | 0.508 | 0.00454 | 8.94e+06 | – | – | –
3 | 66BLH (Fab, V domains shown, also called 18BLM Fab) VH: EVQLVQSGAEVKKPGASVKVSCKASGYTFTSYDMHWVRQAPGQGLEWMGRIDPQSGGIKYAQKFQGRATLTVDTSTSTAYMELSRLRSDDTAVYYCARYDHGGYFDVWGQGTLVTVSS VL: DIQMTQSPSSLSASVGDRVTITCRASQDIYNYLNWYQQKPGKAVKLLIYYTSRLETGVPSRFSGSGSGTDYTLTISSLQPEDFATYFCQQGDTLPWTFGQGTKLEIK | 3.13 | 0.0181 | 5.76e+06 | no binding (tested: 1000 nM Fab) | no binding (tested: 1000 nM Fab) | – | – | – | – | 16 | 3.73 | 0.00764 | 2.05e+06 | – | 0.0221 | 2.09e+06 | 16.8 | 0.0329 | 1.96e+06
4 | 57BLH (Fab, V domains shown, also called 09BLM Fab) VH: EVQLVQSGAEVKKPGASVKVSCKASGYTFTSYDMHWVRQAPGQGLEWMGRIDPISGGIKYAQKFQGRATLTVDTSTSTAYMELSRLRSDDTAVYYCARWDYGGYFDVWGQGTLVTVSS VL: DIQMTQSPSSLSASVGDRVTITCRASQDIFNYLNWYQQKPGKAVKLLIYYTSHLETGVPSRFSGSGSGTDYTLTISSLQPEDFATYFCQQGDTLPWTFGQGTKLEIK | – | – | – | no binding (tested: 1000 nM Fab) | no binding (tested: 1000 nM Fab) | 0.081 | 0.00049 | 6.06e+06 | 1.3 | 723 | 0.081 | 0.00049 | 6.06e+06 | 0.106 | 0.00159 | 1.54e+07 | – | – | –
5 | 65BLH (Fab, V domains shown, also called 17BLM Fab) VH: EVQLVQSGAEVKKPGASVKVSCKASGYTFTSYDMHWVRQAPGQGLEWMGRIDPQSGGIKYAQKFQGRATLTVDTSTSTAYMELSRLRSDDTAVYYCARWDYGGYFDVWGQGTLVTVSS VL: DIQMTQSPSSLSASVGDRVTITCRASQDIYNYLNWYQQKPGKAVKLLIYYTSRLETGVPSRFSGSGSGTDYTLTISSLQPEDFATYFCQQGDELPWTFGQGTKLEIK | – | – | – | no binding (tested: 1000 nM Fab) | no binding (tested: 1000 nM Fab) | 0.146 | 0.00107 | 7.33e+06 | 0.4 | 401 | 0.146 | 0.00107 | 7.33e+06 | – | – | – | – | – | –
6 | 62BLH (Fab, V domains shown, also called 14BLM Fab) VH: EVQLVQSGAEVKKPGASVKVSCKASGYTFTSYDTHWVRQAPGQGLEWMGRIDPQSGGIKYAQKFQGRATLTVDTSTSTAYMELSRLRSDDTAVYYCARWDYGGYFDVWGQGTLVTVSS VL: DIQMTQSPSSLSASVGDRVTITCRASQDIYNYLNWYQQKPGKAVKLLIYYTSYLETGVPSRFSGSGSGTDYTLTISSLQPEDFATYFCQQGDTLPWTFGQGTKLEIK | – | – | – | no binding (tested: 1000 nM Fab) | no binding (tested: 1000 nM Fab) | 0.246 | 0.00124 | 4.69e+06 | 1.2 | 222 | 0.246 | 0.00124 | 4.69e+06 | 0.29 | 0.00168 | 5.8e+06 | – | – | –

These reach a lower Kd [6]. Values come first.

Row | Kd [1] [nM] | koff [1] [s⁻¹] | kon [1] [M⁻¹ s⁻¹] | binding result [2] | binding result [3] | Kd [4] [nM] | koff [4] [s⁻¹] | kon [4] [M⁻¹ s⁻¹] | Fold change in KD from pH 7.4 to pH 6 [5] [fold] | Fold improvement in KD [6] [fold] | Kd [6] [nM] | koff [6] [s⁻¹] | kon [6] [M⁻¹ s⁻¹] | Kd [7] [nM] | koff [7] [s⁻¹] | kon [7] [M⁻¹ s⁻¹] | Kd [8] [nM] | koff [8] [s⁻¹] | kon [8] [M⁻¹ s⁻¹] | Binder
7 | – | – | – | no binding (tested: 1000 nM Fab) | no binding (tested: 1000 nM Fab) | 0.006 | 2.57e-05 | 4.53e+06 | 1.7 | 9760 | 0.006 | 2.57e-05 | 4.53e+06 | 0.01 | 5.56e-05 | 5.55e+06 | – | – | – | 56BLH (Fab, V domains shown, also called 08BLM Fab) VH: EVQLVQSGAEVKKPGASVKVSCKASGYTFTSYDMHWVRQAPGQGLEWMGRIDPQSGGTKYAQKFQGRATLTVDTSTSTAYMELSRLRSDDTAVYYCARWDYGGQFDVWGQGTLVTVSS VL: DIQMTQSPSSLSASVGDRVTITCRASQDIYNYLNWYQQKPGKAVKLLIYYTSGLETGVPSRFSGSGSGTDYTLTISSLQPEDFATYFCQQGDTLPWTFGQGTKLEIK
8 | – | – | – | no binding (tested: 1000 nM Fab) | no binding (tested: 1000 nM Fab) | 0.053 | 0.000313 | 5.93e+06 | 1.6 | 1100 | 0.053 | 0.000313 | 5.93e+06 | 0.086 | 0.000591 | 6.88e+06 | – | – | – | 58BLH (Fab, V domains shown, also called 10BLM Fab) VH: EVQLVQSGAEVKKPGASVKVSCKASGYTFTSYDMHWVRQAPGQGLEWMGRIDPQSGGTKYAQKFQGRATLTVDTSTSTAYMELSRLRSDDTAVYYCARWDYGGYFDVWGQGTLVTVSS VL: DIQMTQSPSSLSASVGDRVTITCRASQDIYNYLNWYQQKPGKAVKLLIYYTSVLETGVPSRFSGSGSGTDYTLTISSLQPEDFATYFCQQGDTLPWTFGQGTKLEIK
9 | – | – | – | no binding (tested: 1000 nM Fab) | no binding (tested: 1000 nM Fab) | 0.013 | 4.52e-05 | 3.57e+06 | 2.4 | 4500 | 0.013 | 4.52e-05 | 3.57e+06 | 0.031 | 0.000121 | 3.91e+06 | – | – | – | 61BLH (Fab, V domains shown, also called 13BLM Fab) VH: EVQLVQSGAEVKKPGASVKVSCKASGYTFTSYDMHWVRQAPGQGLEWMGRIDPQTGDIKYAQKFQGRATLTVDTSTSTAYMELSRLRSDDTAVYYCARWDYGGQFDVWGQGTLVTVSS VL: DIQMTQSPSSLSASVGDRVTITCRASQDIYNYLNWYQQKPGKAVKLLIYYTSGLETGVPSRFSGSGSGTDYTLTISSLQPEDFATYFCQQGDTLPWTFGQGTKLEIK
